The source of these data is publication PMC11607471, “E3 Ubiquitin Ligase Ring Finger Protein 2 Alleviates Cerebral Ischemia–Reperfusion Injury by Stabilizing Mesencephalic Astrocyte‐Derived Neurotrophic Factor Through Monoubiquitination” (CNS Neuroscience & Therapeutics, 2024).

This assay deals with T1, GST-RNF2 (human, UniProt Q99496 1-336).
T1 construct: RNF2; also called recombinant GST-tagged human RNF2; source: Escherichia coli BL-21, immobilized on glutathione-Sepharose beads
T1 sequence (looked up): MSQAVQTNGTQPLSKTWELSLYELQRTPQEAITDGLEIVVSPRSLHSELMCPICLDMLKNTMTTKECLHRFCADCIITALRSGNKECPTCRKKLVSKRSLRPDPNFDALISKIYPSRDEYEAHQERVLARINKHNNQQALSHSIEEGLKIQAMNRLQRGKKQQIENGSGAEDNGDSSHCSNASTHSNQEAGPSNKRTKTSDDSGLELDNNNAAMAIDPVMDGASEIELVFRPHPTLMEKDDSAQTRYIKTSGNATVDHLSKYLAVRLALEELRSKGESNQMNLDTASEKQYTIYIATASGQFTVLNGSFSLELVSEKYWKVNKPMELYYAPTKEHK
Kind of assay: pull-down; GST-RNF2 immobilized on glutathione-Sepharose beads incubated with recombinant His-MANF; blot with anti-MANF. The conditions noted are these: both partners purified.

B1: His-tagged human MANF (natural protein, UniProt P55145 25-182, looked up)
chain: LRPGDCEVCISYLGRFYQDLKDRDVTFSPATIENELIKFCREARGKENRLCYYIGATDDAATKIINEVSKPLAHHIPVEKICEKLKKKDSQICELKYDKQIDLSTVDLKKLRVKELKKILDDWGETCKGCAEKSDYIRKINELMPKYAPKAASARTDL
notes: human MANF; also called His-MANF; recombinant His-MANF; source: Escherichia coli BL-21, purified (Ni-NTA agarose)
On to B1, for which the binding result is given as “binds”.
